Source: the supplement of paper PMC12042874
± gives the uncertainty stated by the source.

Assay: amyloid nucleation score (Sup35N fusion, yeast selection) (log enrichment); library NNK3; higher = more nucleation; inactive = no reads after selection
Summary of the method: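 Peptides of 20 random codons fused to Sup35N were expressed in psi-negative yeast, induced 24 hours with 100 μM copper sulfate, then grown 7 days at 30°C on medium lacking adenine and uracil. Input and output plasmid inserts were Illumina-sequenced. Nucleation score is the DiMSum log enrichment of output over input reads, centred on the mode score of non-aggregating sequences, excluding sequences with under 100 input reads. Random libraries had three technical output replicates.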

| Substance | amyloid nucleation score |
| --- | --- |
| VVDGLMAVFLSHVRVAIYYV | inactive |
| IVSLSLVMSTDLC | 0.834 ± 0.24 |
| LKSCGMRVSKCCFIDICELC | 0.022 ± 0.75 |
| NWQYLNG | inactive |
| TKLPNYFWGLKGYHLLALLR | inactive |
| HRHNVGLCCAGDWHLVELGS | 2.06 ± 0.064 |
| HNMNR | inactive |
| YFVLFVRQCVKLVMRFGSED | inactive |
| CGTCSDYGYHFGCTDRGVDC | inactive |
| TSKLVCPNGVMHLRDDRVGC | inactive |
| RLLIMSGNNGLLGPSYNAIV | -0.01 ± 0.78 |
| CFFINRRTLKGLT | inactive |
| TYMTYERVYL | inactive |
| LRYSVEAFTRDDLTESSQVV | inactive |
| ISFSWHF | 0.789 ± 0.17 |
| CHRRLML | inactive |
| EYCKISD | inactive |
| HAFFSADSWGNDIELFIYNG | inactive |
| CNSYTYVEGSNYNGSSQGLD | inactive |
| MPYSFIMTVTYSLQYTQWSL | -0.074 ± 0.51 |
| QGKCDSELRAAAMDI | inactive |
| MVLPLSYKQSCFQLCKFLDN | inactive |
| GMCKGMVIGSAVDFTMFSAA | inactive |

| Substance | amyloid nucleation score |
| --- | --- |
| SPQLNCEANWKVFCWAGMDP | inactive |
| SFHASGQSSLYKKGDLSTCV | inactive |
| LMLEISIHLLLYRVSISGYF | inactive |
| KLFGTKIVIVDVDSLCYMVL | inactive |
| FVYYANYQYFRPFYKMSWHQ | 1.51 ± 0.078 |
| RNRWPLPRYICRFKGFSHVV | inactive |
| DHQLSGGDGVGSMYSTEGKL | inactive |
| SAYSSGLRSKAYLYTASCTP | inactive |
| LLKGFSCFLNR | inactive |
| SPTRQLIKFKYSGHYIVHLR | inactive |
| ELRELFQNCL | inactive |
| SSFSVSVVSKGKSVRNSGSL | 0.568 ± 0.33 |
| AFSFPSERVWVWNFHMRDKE | 3.11 ± 0.058 |
| ANNLAFSRGG | -0.977 ± 1.5 |
| LHSIFDSVHSCMRFWMIWSE | inactive |
| TKLCQSLRHAQRGTRTTSFS | inactive |
| FLDVALLKSMNCSASREVGV | inactive |
| TWLIY | inactive |
| IAGCMGNCGLCRAMVICWMN | -0.409 ± 0.7 |
| CNVASSNFRCHYSQMRRFCE | inactive |
| SLYFDT | inactive |
| VEYQNI | inactive |
| RNNSNEKSFLRQSYYHCDCF | 2.73 ± 0.07 |

| Substance | amyloid nucleation score |
| --- | --- |
| MIHAFGFLMMCLVQSYLELF | inactive |
| TFQDGLLRSDWFIMTLFRRP | inactive |
| NWSSH | inactive |
| CIRVKHFCISHEDKR | inactive |
| GYTVAKVNFNGWNRL | 0.453 ± 0.35 |
| TTLQEDGYRDACGYMASVFW | inactive |
| NVEMLFNNSHHSTDEDAWYD | inactive |
| SVDDFR | inactive |
| ADKWSHGAHDRVVLVLRVCR | inactive |
| WCCHRAFLYI | inactive |
| GLLMFLNVCLVVTVSARTYS | inactive |
| MGKETRVA | inactive |
| CRSQMHWLYSQRQIMPVLRS | inactive |
| TSQYRPERKLRVR | inactive |
| TQGFLNKAGNVLSVIMDRIR | inactive |
| LFMMCGHMEYAIVKNRVDKS | 0.016 ± 0.46 |
| FGEVNIAYRMIMRMSGQGGK | 0.998 ± 0.17 |
| AVNYMYSQSMKIVRDCFVIV | inactive |
| CVGVF | inactive |
| PAYLHYSIFWQNVFSNVLIM | 1.1 ± 0.14 |
| HYTHSNLQAPDPH | inactive |
| ILQYRYKGWNRKGYHQQPVI | inactive |
| YALLKHSTWYRVGQF | inactive |

| Substance | amyloid nucleation score |
| --- | --- |
| HLSRNVRLS | inactive |
| DLFKTVPYRWGFRYHIGIYM | inactive |
| FDLRSWCM | inactive |
| NYWYITKERGSNLVWSNGDE | inactive |
| DFGFYWSSVGHAGLETKLYP | inactive |
| FHNVGLI | 1.77 ± 0.093 |
| YNRFKKLSMA | inactive |
| WDLITL | inactive |
| SVYGSVFKNRG | inactive |
| SVPDTLSDFISCPVNCTFLN | inactive |
| RNKLALVLKLAHSI | inactive |
| FMRGTVLKTRNYRFRQAHEE | inactive |
| NHYATFGCSVTFAIVNWSRF | 1.86 ± 0.057 |
| TRICMCFEFVNTSY | inactive |
| MKFRLTSSRQSDEAHFMWLT | 1.28 ± 0.085 |
| IFPNLACSFRFCTRPYRSSM | 0.571 ± 0.25 |
| WMCVLCCSVRNIGKTYKSCL | inactive |
| RQCGVVIKFLMISTLISSIA | inactive |
| GWWRSFPLQFKSPVYLNRLC | inactive |
| VTQATWLGRIYLLLAPA | inactive |
| DLIRQRAETPKMVISWR | inactive |
| NNCYRMGFLCPTNRQTMEG | inactive |
| HLDQNLWPKQKQAHTLRTKW | inactive |

| Substance | amyloid nucleation score |
| --- | --- |
| ILMQNSETWSLYPNTA | inactive |
| FLTFRPSLSTRHLFLMESHT | inactive |
| YAFVCSDV | inactive |
| VWRRKKAGAHYREDVSNYPQ | inactive |
| KFGFLYPISCDVYGQDFLAL | inactive |
| QHNSK | inactive |
| HKSINVIRDPGKIVFLTEVI | inactive |
| SLASRHIGHLLISFLLGYGA | inactive |
| VRVRVHVVVVVKLLKMVGAV | inactive |
| ACLLLSDLNY | inactive |
| FFSSGVVRQAYVLVAEDNVS | inactive |
| FVSLLWLRGDVVHALFIQWM | inactive |
| DILIREFDYLTSTHLDDKIR | inactive |
| KGTLGCNSSSHVLIAVCNAM | inactive |
| RSMRSQSSLQAHQSIRSEGR | inactive |
| ALVRGIVSTPDSRM | inactive |
| DSICYHAFYMEEGGS | inactive |
| FSCIMVRCYFR | inactive |
| KLFSYRRRPNINCLG | inactive |
| WTTYLWVAGVLA | inactive |
| RNSMGVILKVCLGRN | 1.66 ± 0.091 |
| KKHIVY | inactive |
| VISGNNVCSIRSDFRKIFFY | 0.762 ± 0.17 |

| Substance | amyloid nucleation score |
| --- | --- |
| MMELQVAQLHTEGDRLKSRR | -0.787 ± 2.4 |
| YPGFSAGCDVWQKFNYGVMT | inactive |
| YTMLFLLLSWNVFFISWCCF | inactive |
| NRQSLGIRSYFC | inactive |
| LLMSLL | 0.09 ± 0.88 |
| SFICGINNELVK | inactive |
| VQWCPNVYTDSQVCRYVSSR | inactive |
| ICRHLSIGG | inactive |
| LDMSLACPRG | -0.051 ± 0.77 |
| NWFPGTRGRLLQVTLGYLVD | inactive |
| SSGGCR | inactive |
| FFLTHGCTCEDALKFGWVCY | inactive |
| LYRCDDGCSIRTVRDYWWVS | inactive |
| CSCWFFLVHNFNNIYRILWK | inactive |
| PILMISCAAGKELQLKVLWN | inactive |
| NCHAGPYEVYLVVGPELLLK | inactive |
| VMDLLK | inactive |
| KRPHV | inactive |
| SAYLELLLRSFAVICNLSLT | 2.31 ± 0.061 |
| SFNMDYHMWIEQGSRWVFTT | inactive |
| SPARRLAAFGFVVL | -0.385 ± 1.2 |
| TAVVKW | inactive |
| RSSSASR | inactive |

| Substance | amyloid nucleation score |
| --- | --- |
| WQIWDRVQTRKFHGEFTYMR | inactive |
| SCKFITFRGGQVQLVNDEGM | inactive |
| RWCMVIDSTNWCSCDRKHGA | 1.49 ± 0.13 |
| MRYGKLDLSRVYLQCDRLGR | inactive |
| FSRSTTDVSINSGWKM | inactive |
| NSMRVKVRTLTVYISEFTVS | inactive |
| SSARAKWSDQQMSSYRA | inactive |
| FWNSFHFVNNYWHVY | inactive |
| NQSGALVG | inactive |
| CLPVARGQMR | inactive |
| TSKRSYVSTGYTNWFTFRI | inactive |
| YYNAGAGKRRYNRSVRGSLK | inactive |
| NMCYSVCVHYLLTAESKCHT | inactive |
| GYKIW | inactive |
| WSMSDFAALIGWIDALGLEL | inactive |
| ILGAILLSMFDSLYLGGEWR | inactive |
| LSYNTVDVWPLAFNFWWMIS | 0.199 ± 0.44 |
| HVVVFDYLLSVLCIVDRVEG | inactive |
| VTGDWTGYMPLCLISVAFLS | 1.5 ± 0.083 |
| QFYGLHMAFGKQVNALYTGH | inactive |
| THGIMLGFEECLGVYTFMCG | inactive |
| GTWSVMCSYEPMAR | inactive |
